From US5721133

Legend:
[1] = molecular target: hybrid regulatory protein encoded by plasmid p1009 (GAL4 residues 1-147, functional wild-type Coxsackievirus 3C protease linker, GAL4 residues 768-881) (yeast S. cerevisiae; Coxsackievirus (CVB3)) (UniProt P03313)
[2] = molecular target: hybrid regulatory protein encoded by plasmid pHP236 (GAL4 residues 1-147, functional HIV-1 protease linker, GAL4 residues 768-881) (yeast S. cerevisiae; HIV-1 (λHXB-2 subclone)) (UniProt P04585)

Row | Substance | β-Galactosidase Activity (MUG units), GAL1-lacZ reporter in yeast GGY1::171 [1] | β-Galactosidase Activity (MUG units), GAL1-lacZ reporter in yeast GGY1::171 [2]
1 | hybrid regulatory protein encoded by plasmid p1009 (GAL4 residues 1-147, functional wild-type Coxsackievirus 3C protease linker, GAL4 residues 768-881) (from UniProt P03313) (enzyme) | 14 MUG units | –
2 | hybrid regulatory protein encoded by plasmid pHP236 (GAL4 residues 1-147, functional HIV-1 protease linker, GAL4 residues 768-881) (from UniProt P04585) (enzyme) | – | 68 MUG units
